In doi:10.1101/2025.03.31.646301, “Discovery of Tankyrase scaffolding inhibitor specifically targeting the ARC4 peptide binding domain” (bioRxiv, 2025):
Ends that are not written are not given here.

Biological target: T1, TNKS2 ARC4 fused with mCerulean (CFP) (human, UniProt Q9H2K2 488-649)
T1 construct: Tankyrase 2 (TNKS2), human, ankyrin repeat cluster 4 (ARC4); residues 487-649 are stated only for the crystallised TNKS2 ARC4; Vector pNIC-CFP: mCerulean inserted between the 6xHis-tag and the TEV site of pNIC28-Bsa4; the label reads CFP first, so the tags are probably N-terminal; also called CFP-TNKS2 ARC4; source: E. coli BL21(DE3), purified (IMAC, SEC)
T1 sequence: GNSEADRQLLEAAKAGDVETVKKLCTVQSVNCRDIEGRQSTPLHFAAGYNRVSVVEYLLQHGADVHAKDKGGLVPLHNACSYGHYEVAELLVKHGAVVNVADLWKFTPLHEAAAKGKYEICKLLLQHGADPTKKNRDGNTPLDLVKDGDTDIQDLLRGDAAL
Test: FRET or BRET; ratiometric FRET in solution: CFP-TNKS1/2 ARC 100 nM and YFP-REAGDGEE 200 nM, 10 mM Bis-Tris Propane pH 7, 3% PEG 20000, 0.01% Triton X-100, 0.5 mM TCEP; small-molecule compounds added (screen at 30 uM, dose response); 1 M guanidine hydrochloride as control of total inhibition
Details: both partners purified

B1: 8-residues peptide optimized for the binding of ARCs (REAGDGEE) fused with mCitrine (YFP) (peptide)
chain: REAGDGEE
modifications: also: fused with mCitrine (YFP)
notes: Vector pNIC-YFP: mCitrine inserted between the 6xHis-tag and the TEV site of pNIC28-Bsa4; the label reads YFP first, so the peptide probably stands at the C-terminal end of the fusion; also called optimized peptide; source: E. coli BL21(DE3), purified (IMAC, SEC)
Does B1 bind?
Result: binds
